We go through 2 substances from paper doi:10.1101/2021.07.15.452465.

A value given as a limit tells only on which side of the number the result lay.

For assay [1], the target named is A. nidulans CCAAT-binding complex, conserved core domains of HapB, HapC and HapE (HapB^231-293, HapC^42-132, HapE^47-164) (Aspergillus nidulans). The experiment in a line: crystal structure.
Assay [2] has as its target A. nidulans HapX^36-133M carrying C92K and C129S point mutations (Aspergillus nidulans). The experiment in a line: crystal structure.
Assay [3] has as its target A. nidulans CCAAT-binding complex, conserved core domains of HapB, HapC and HapE (HapB^231-293, HapC^42-132, HapE^47-164) (Aspergillus nidulans). In words: SEC.
Assay [4] has the same target. The experiment in a line: SPR.

“A. nidulans HapX^36-133M carrying C92K and C129S point mutations (domain or fragment)” returned a stoichiometry N (HapX subunits per CBC) in assay [1] of 2. In addition, the values for the stoichiometry N in assay [2] and in assay [3] were 2 and 2 HapX per CBC, respectively.

In assay [4], “A. nidulans HapX^36-141 (domain or fragment)” showed a fold increase of binding against HapX^36-133 of under 3.6 fold.
